Measurements taken from publication PMC7367260, “Nucleosome binding by the pioneer transcription factor OCT4” (Scientific Reports, 2020).

Legend:
[1] = molecular target: T1, human histone H4 (human, UniProt P62805 1-103); assay: cross-linking; XL-MS: LIN28B nucleosome (4.3 µM) mixed with OCT4 at nucleosome:OCT4 = 1:4, 1 h on ice, crosslinked with 9.6 mM DSS-H12/D12 at 30 °C for 30 min; Trypsin/Lys-C digest, LC/MS-MS, xQuest/xProphet; settings: both partners purified
T1 construct: histone H4, human canonical histone, wild type; Stood in the assays as part of the reconstituted LIN28B nucleosome; The H4 S47C mutant was used only for the chemical probing assay

[2] = molecular target: human histone H3.1 (human, UniProt P68431 1-136); assay: as above; settings: both partners purified

B1: His6-tagged human OCT4 (5CS) (natural protein)
chain: MAGHLASDFAFSPPPGGGGDGPGGPEPGWVDPRTWLSFQGPPGGPGIGPGVGPGSEVWGIPPCPPPYEFCGGMAYCGPQVGVGLVPQGGLETSQPEGEAGVGVESNSDGASPEPCTVTPGAVKLEKEKLEQNPEESQDIKALQKELEQFAKLLKQKRITLGYTQADVGLTLGVLFGKVFSQTTISRFEALQLSFKNMSKLRPLLQKWVEEADNNENLQEISKAETLVQARKRKRTSIENRVRGNLENLFLQSPKPTLQQISHIAQQLGLEKDVVRVWFSNRRQKGKRSSSDYAQREDFEAAGSPFSGGPVSFPLAPGPHFGTPGYGSPHFTALYSSVPFPEGEAFPPVSVTTLGSPMHSN
notes: OCT4, human; 5CS mutant: all 5 Cys residues of the POUS·POUHD domain replaced with Ser; Expressed from pET15b in which the thrombin site was replaced with a PreScission site; no cleavage step is described, and the gel-shift methods name His6-OCT4 (5CS). pET15b would place the tag at the N-terminus (surmised); also called His6-OCT4 (5CS)
B1: binds [1]; binds [2].
